The values below come from the supplement of paper PMC10724198.

± gives the standard deviation of the averaged measurements.
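Also: PSI is a weighted mean of sequencing reads over stability bins, variants kept only with over 10 reads, mCherry proximal and sfGFP distal, peptide attached via GGGS linker.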

This data set has as its system Saccharomyces cerevisiae. Put plainly: protein stability index of tFT-peptide fusion (C-terminal peptide) (PSI (0-1 scale)); higher = more stable (slower turnover). The settings on record: genetic background: wild type; temperature: 30 C. On the procedure: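 Multiplexed protein stability (MPS) profiling in S. cerevisiae. Random 12-aa peptides (tFT-X12 library) are fused to the C-terminus of a sfGFP-mCherry tandem fluorescent timer, after mCherry and a GGGS linker. Cells are FACS-sorted into 8 mCherry/sfGFP bins and deep-sequenced. The protein stability index (PSI) is the read-weighted bin average, scaled from 0 (unstable) to 1 (stable). Only peptides with >10 reads are reported; cells were grown at 30 °C in SC-His with glucose.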
In turn, GPSVGWFPSGWS displayed a protein stability index of 0.74212 ± 0.00021.
Regarding GPVTSFAPVAVS, the protein stability index stood at 0.617 ± 0.038.
GPVVGGWSVVSK came in with a protein stability index of 0.655 ± 0.058.
On to GPYDLVSAPCLG, for which the protein stability index stood at 0.753 ± 0.057.
The sequence GQAPRARKTSTD gave a protein stability index of 0.678 ± 0.014.
GQAWVEITARDS showed a protein stability index of 0.748 ± 0.075.
Turning to GQGRGERRRVRP, the protein stability index worked out at 0.653 ± 0.075.
In turn, GQGSSRKSTSVK registered a protein stability index of 0.7114 ± 0.0041.
In turn, GQHSCTRVDTQQ displayed a protein stability index of 0.734 ± 0.011.
For the sequence GQLMRPSFSVSC, the protein stability index amounted to 0.658 ± 0.009.
Next, GQSRQKNEKKIK: 0.687 ± 0.0091; GQSSVGCYNYRR: 0.676 ± 0.036.
GRAGLDLACWWK returned a protein stability index of 0.709 ± 0.03.
The sequence GRARWVGGEGVW showed a protein stability index of 0.706 ± 0.025.
Sequence GRCGRFVGAAWG gave a protein stability index of 0.741 ± 0.17.
In the case of GRCLRITMACYI it was 0.646 ± 0.035; in that of GREGAADGWACG, 0.652 ± 0.055; in that of GREREKGGKRIE, 0.629 ± 0.047.
In the case of GRFRQTVTGEGW it was 0.669 ± 0.087; in that of GRGAGQAGKKKI, 0.631 ± 0.0073.
Next, GRGCLGSILVFL: 0.633 ± 0.047; GRGEKKREVDGG: 0.69 ± 0.065; GRGGGGGAVGEW: 0.683 ± 0.037.
For the sequence GRGGWPPWFKHK, the protein stability index worked out at 0.712 ± 0.033.
Sequence GRGLGGWARGWW had a protein stability index of 0.69008 ± 0.00035.
Turning to GRGPRTTKAGRG, the protein stability index is 0.7 ± 0.03.
In turn, GRGRVAAGFVAR had a protein stability index of 0.737 ± 0.039.
In the case of GRGTLLGLGLYA it was 0.692 ± 0.078; in that of GRGVGACLVVVV, 0.523 ± 0.022; in that of GRGVGCVRRVGG, 0.676 ± 0.059.
With GRGWGGALGWCG, the protein stability index was 0.668 ± 0.013.
Next, GRIFAGCGGGGV: 0.705 ± 0.06; GRKKRGRKGEEK: 0.631 ± 0.035; GRKPGGGRRAPE: 0.666 ± 0.028.
In the case of GRLFCAALPLPL it was 0.666 ± 0.089; in that of GRLGSSRIVGKS, 0.692 ± 0.017.
In the case of GRLQRKQRKYKA it was 0.719 ± 0.0083; in that of GRPGISESGIIG, 0.7103 ± 0.0071.
Consider GRPTRRHRGRLV, for which the protein stability index was 0.709 ± 0.028.
As to GRQEISVGGRRM, the protein stability index turned out to be 0.7007 ± 0.00071.
For GRRDGRWGQIVR, the protein stability index was 0.679 ± 0.0097.
Next, GRRRVGAVVEGV: 0.641 ± 0.01; GRRVQRGQARGA: 0.66 ± 0.024; GRRWVGAVVEGV: 0.684 ± 0.043.
Regarding GRSASDTRGLGL, the protein stability index amounted to 0.672 ± 0.13.
Next, GRSDAPVPFDPP: 0.561 ± 0.0098; GRSGWAWFTCRC: 0.67 ± 0.059; GRTGETGRIGRG: 0.6512 ± 0.0023.
In the case of GRTWCFVGARPS it was 0.698 ± 0.17; in that of GRVRETRCISYG, 0.652 ± 0.11; in that of GRVRIFDCVVRL, 0.753 ± 0.011.
In the case of GRVRLGMKETLS it was 0.713 ± 0.016.
Sequence GRVSAVEFWFCF yielded a protein stability index of 0.615 ± 0.04.
GRWGGWGGRGCG: the protein stability index was 0.696 ± 0.023.
In the case of GRYRNDVAVLNF it was 0.683 ± 0.087.
Next, GSAHSFTLLVLP: 0.742 ± 0.043; GSDMRADGRIER: 0.673 ± 0.039.
In the case of GSEPCPRPCGPG it was 0.692 ± 0.048; in that of GSFLGTSFKSEY, 0.666 ± 0.029; in that of GSFMECIREGIF, 0.718 ± 0.058.
The sequence GSGAICAFGFWC had a protein stability index of 0.6599 ± 0.0041.
For the sequence GSGDFWRLCISL, the protein stability index worked out at 0.785 ± 0.1.
Regarding GSGRRGLMGRKS, the protein stability index was 0.728 ± 0.011.
In the case of GSGVVCTMGWRL it was 0.6856 ± 0.0068.
